Key:
Test in all cases: holdup assay
Set-up in all cases: key: below the threshold = too weak to quantify, mostly under pKd 3.1 to 4
[1] = molecular target: DLG4_2, P78352
[2] = molecular target: SNX27, Q96L92
[3] = molecular target: T1, MPP7, Q5T2T1
T1 sequence (Q5T2T1 134-230, limits assumed, looked up): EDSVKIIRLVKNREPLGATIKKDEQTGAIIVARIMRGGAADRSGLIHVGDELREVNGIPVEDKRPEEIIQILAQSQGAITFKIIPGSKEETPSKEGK

[4] = molecular target: GRIP2_4, Q9C0E4
[5] = molecular target: T2, DVL3, Q92997
T2 sequence (Q92997 244-331, limits assumed, looked up): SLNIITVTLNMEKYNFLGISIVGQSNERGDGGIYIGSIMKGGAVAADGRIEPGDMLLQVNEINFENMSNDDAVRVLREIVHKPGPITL

[6] = molecular target: HTRA2, O43464
[7] = molecular target: T3, SYNJ2BP, P57105
T3 sequence (P57105 8-110, limits assumed, looked up): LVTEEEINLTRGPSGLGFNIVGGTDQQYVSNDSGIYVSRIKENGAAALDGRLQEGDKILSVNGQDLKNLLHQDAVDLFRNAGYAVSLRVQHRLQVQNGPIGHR

[8] = molecular target: T4, LIN7A, O14910
T4 sequence (O14910 103-200, limits assumed, looked up): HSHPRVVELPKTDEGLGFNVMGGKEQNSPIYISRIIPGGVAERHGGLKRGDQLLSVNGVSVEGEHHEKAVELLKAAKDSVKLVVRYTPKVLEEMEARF

[9] = molecular target: T5, GRIP1_3, Q9Y3R0
T5 sequence (Q9Y3R0 247-346, limits assumed, looked up): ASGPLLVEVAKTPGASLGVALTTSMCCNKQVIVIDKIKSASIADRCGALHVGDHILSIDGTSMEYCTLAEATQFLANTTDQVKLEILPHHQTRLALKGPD

[10] = molecular target: MAGI1_2, Q96QZ7
[11] = molecular target: DLG1_2, Q12959
[12] = molecular target: T6, CARD11, Q9BXL7
T6 sequence (Q9BXL7 662-765, limits assumed, looked up): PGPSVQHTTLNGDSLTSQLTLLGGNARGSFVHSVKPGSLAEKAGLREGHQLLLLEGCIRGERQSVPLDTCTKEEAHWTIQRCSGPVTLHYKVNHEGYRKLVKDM

[13] = molecular target: NHERF4_2, Q86UT5
[14] = molecular target: IL16_1, Q14005
[15] = molecular target: GRIP2_7, Q9C0E4
[16] = molecular target: Inadl_2, Q8NI35
[17] = molecular target: DLG4_3, P78352
[18] = molecular target: T7, PDZD7_3, Q9H5P4
T7 sequence (Q9H5P4 857-944, limits assumed, looked up): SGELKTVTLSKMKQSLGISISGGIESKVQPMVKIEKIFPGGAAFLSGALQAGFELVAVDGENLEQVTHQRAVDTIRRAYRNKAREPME

[19] = molecular target: IL16_3, Q14005
[20] = molecular target: T8, SNTG2, Q9NY99
T8 sequence (Q9NY99 68-166, limits assumed, looked up): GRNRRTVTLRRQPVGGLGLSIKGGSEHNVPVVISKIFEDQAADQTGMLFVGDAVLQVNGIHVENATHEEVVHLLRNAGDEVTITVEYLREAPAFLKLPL

[21] = molecular target: GRID2IP_2, A4D2P6
[22] = molecular target: FRMPD2_1, Q68DX3
[23] = molecular target: MAST1, Q9Y2H9
[24] = molecular target: T9, GRIP1_4, Q9Y3R0
T9 sequence (Q9Y3R0 467-571, limits assumed, looked up): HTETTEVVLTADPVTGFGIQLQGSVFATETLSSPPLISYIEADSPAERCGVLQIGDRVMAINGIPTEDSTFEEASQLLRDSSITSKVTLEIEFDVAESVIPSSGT

[25] = molecular target: T10, GRIP1_7, Q9Y3R0
T10 sequence (Q9Y3R0 999-1096, limits assumed, looked up): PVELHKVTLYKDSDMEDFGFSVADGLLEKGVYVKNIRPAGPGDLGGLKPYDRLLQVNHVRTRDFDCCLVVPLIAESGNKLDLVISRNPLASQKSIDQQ

[26] = molecular target: FRMPD2_3, Q68DX3
[27] = molecular target: NHERF4_1, Q86UT5-2
[28] = molecular target: NHERF4_4, Q86UT5
[29] = plain residues with an end cap or a label only (N-terminal biotin on a linker: ahx)
[30] = plain residues with an end cap or a label only (N-terminal biotin on a linker: ado-ado)

Sequence of GRIP2_4, Q9C0E4 (Q9C0E4 446-548): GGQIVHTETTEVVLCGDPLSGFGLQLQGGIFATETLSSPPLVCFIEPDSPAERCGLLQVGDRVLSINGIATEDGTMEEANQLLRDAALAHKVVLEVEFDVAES
Sequence of FRMPD2_3, Q68DX3 (Q68DX3 1073-1166): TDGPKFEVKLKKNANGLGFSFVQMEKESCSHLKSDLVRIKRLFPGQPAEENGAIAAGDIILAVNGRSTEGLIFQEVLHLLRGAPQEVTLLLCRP
Sequence of DLG4_3, P78352 (P78352 306-403): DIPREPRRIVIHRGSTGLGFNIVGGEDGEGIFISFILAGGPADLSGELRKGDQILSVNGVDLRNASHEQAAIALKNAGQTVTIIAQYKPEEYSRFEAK
Sequence of Inadl_2, Q8NI35 (Q8NI35 238-335): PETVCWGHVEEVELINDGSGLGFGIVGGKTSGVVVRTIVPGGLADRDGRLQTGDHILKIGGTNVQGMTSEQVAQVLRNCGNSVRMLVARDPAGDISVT
Sequence of DLG1_2, Q12959 (Q12959 314-412): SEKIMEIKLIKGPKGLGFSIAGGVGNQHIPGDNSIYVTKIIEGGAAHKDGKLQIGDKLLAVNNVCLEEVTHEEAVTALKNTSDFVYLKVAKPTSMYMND
Sequence of NHERF4_1, Q86UT5-2 (Q86UT5 other isoform, or with tags, fused parts or gaps): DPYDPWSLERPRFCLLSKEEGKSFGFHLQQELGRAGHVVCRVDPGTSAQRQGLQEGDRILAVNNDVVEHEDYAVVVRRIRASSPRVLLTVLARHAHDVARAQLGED
Sequence of GRID2IP_2, A4D2P6 (A4D2P6 272-370): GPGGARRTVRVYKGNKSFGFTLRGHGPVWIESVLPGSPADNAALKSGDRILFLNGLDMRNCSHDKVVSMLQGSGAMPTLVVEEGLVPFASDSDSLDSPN
Sequence of MAGI1_2, Q96QZ7 (Q96QZ7 456-580): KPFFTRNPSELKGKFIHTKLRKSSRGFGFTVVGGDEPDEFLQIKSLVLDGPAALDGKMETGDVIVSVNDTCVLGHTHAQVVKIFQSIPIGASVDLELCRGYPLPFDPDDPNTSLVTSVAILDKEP
Sequence of FRMPD2_1, Q68DX3 (Q68DX3 770-861): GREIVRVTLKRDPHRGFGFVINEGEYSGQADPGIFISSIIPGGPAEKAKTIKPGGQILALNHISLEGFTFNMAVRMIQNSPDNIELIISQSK
Sequence of DLG4_2, P78352 (P78352 155-259): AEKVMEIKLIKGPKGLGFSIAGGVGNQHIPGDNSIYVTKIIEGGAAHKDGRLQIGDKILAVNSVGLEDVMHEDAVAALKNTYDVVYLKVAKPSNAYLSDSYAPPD
Sequence of MAST1, Q9Y2H9 (Q9Y2H9 962-1065): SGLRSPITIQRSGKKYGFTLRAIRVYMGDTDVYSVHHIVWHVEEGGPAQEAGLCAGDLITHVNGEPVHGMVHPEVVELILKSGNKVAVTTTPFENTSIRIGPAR
Sequence of IL16_3, Q14005 (Q14005 1107-1207): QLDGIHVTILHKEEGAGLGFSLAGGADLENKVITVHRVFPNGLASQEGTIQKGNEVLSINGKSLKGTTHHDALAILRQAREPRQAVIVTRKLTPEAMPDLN
Sequence of NHERF4_4, Q86UT5 (Q86UT5 464-550): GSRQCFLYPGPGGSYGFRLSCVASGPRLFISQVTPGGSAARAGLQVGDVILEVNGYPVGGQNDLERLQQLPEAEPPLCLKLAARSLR
Sequence of NHERF4_2, Q86UT5 (Q86UT5 220-308): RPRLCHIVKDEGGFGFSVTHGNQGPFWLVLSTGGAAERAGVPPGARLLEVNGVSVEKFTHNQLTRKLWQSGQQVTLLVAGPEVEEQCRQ
Sequence of HTRA2, O43464 (O43464 355-458): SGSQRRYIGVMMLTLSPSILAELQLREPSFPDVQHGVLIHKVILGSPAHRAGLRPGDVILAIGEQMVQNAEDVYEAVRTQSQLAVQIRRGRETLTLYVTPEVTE
Sequence of GRIP2_7, Q9C0E4 (Q9C0E4 934-1023): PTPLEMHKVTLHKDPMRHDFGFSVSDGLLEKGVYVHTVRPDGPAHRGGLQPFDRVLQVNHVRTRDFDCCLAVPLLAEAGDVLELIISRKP
Sequence of IL16_1, Q14005 (Q14005 210-306): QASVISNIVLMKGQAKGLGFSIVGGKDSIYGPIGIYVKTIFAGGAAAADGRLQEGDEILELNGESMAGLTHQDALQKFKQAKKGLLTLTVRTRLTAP

APSRKLNTEI [TIAM1, Q13009] was tested, and the pKd [1, 29] was 3.88, the pKd [2, 29] was “below the threshold” and the pKd [3, 29] was “below the threshold”. The pKd [4, 29] was “below the threshold”, the pKd [5, 29] was “below the threshold” and the pKd [6, 29] was “below the threshold”. For the same binder, the pKd [7, 29] was “below the threshold”, the pKd [8, 29] was “below the threshold” and the pKd [9, 29] was “below the threshold”. For the same binder, the pKd [10, 29] was “below the threshold”, the pKd [11, 29] was 3.97 and the pKd [12, 29] was “below the threshold”. The pKd [13, 29] was “below the threshold”, the pKd [14, 29] was “below the threshold” and the pKd [15, 29] was “below the threshold”. For the same binder, the pKd [16, 29] was “below the threshold”, the pKd [17, 29] was “below the threshold” and the pKd [18, 29] was 4.08. The pKd [19, 29] was “below the threshold”, the pKd [20, 29] was “below the threshold” and the pKd [21, 29] was “below the threshold”. For the same binder, the pKd [22, 29] was “below the threshold”, the pKd [23, 29] was “below the threshold” and the pKd [24, 29] was “below the threshold”. The pKd [25, 29] was “below the threshold”, the pKd [26, 29] was “below the threshold” and the pKd [27, 29] was “below the threshold”. The pKd [28, 29] was “below the threshold”.

With DGVNEKVSCV [HTR2A, P28223] the pKd [1, 30] was 4.74, the pKd [2, 30] was 5.15 and the pKd [3, 30] was “below the threshold”. For the same binder, the pKd [4, 30] was “below the threshold”, the pKd [5, 30] was “below the threshold” and the pKd [6, 30] was “below the threshold”. For the same binder, the pKd [7, 30] was 4.3, the pKd [8, 30] was 3.51 and the pKd [9, 30] was “below the threshold”. The pKd [10, 30] was “below the threshold”, the pKd [11, 30] was 4.82 and the pKd [12, 30] was “below the threshold”. For the same binder, the pKd [13, 30] was “below the threshold”, the pKd [14, 30] was 4.72 and the pKd [15, 30] was “below the threshold”. For the same binder, the pKd [16, 30] was “below the threshold”, the pKd [17, 30] was “below the threshold” and the pKd [18, 30] was 4.72. The pKd [19, 30] was “below the threshold”, the pKd [20, 30] was 3.69 and the pKd [21, 30] was 4.54. For the same binder, the pKd [22, 30] was “below the threshold”, the pKd [23, 30] was 3.65 and the pKd [24, 30] was “below the threshold”. The pKd [25, 30] was “below the threshold”, the pKd [26, 30] was 3.53 and the pKd [27, 30] was “below the threshold”. For the same binder, the pKd [28, 30] was “below the threshold”.

In the case of TESNLQTSSC [CGN, Q9P2M7], the pKd [1, 29] is reported as “below the threshold”, the pKd [2, 29] is reported as 4.65 and the pKd [3, 29] is reported as “below the threshold”. For the same binder, the pKd [4, 29] was “below the threshold”, the pKd [5, 29] was “below the threshold” and the pKd [6, 29] was “below the threshold”. The pKd [7, 29] was “below the threshold”, the pKd [8, 29] was “below the threshold” and the pKd [9, 29] was “below the threshold”. The pKd [10, 29] was “below the threshold”, the pKd [11, 29] was “below the threshold” and the pKd [12, 29] was “below the threshold”. The pKd [13, 29] was “below the threshold”, the pKd [14, 29] was “below the threshold” and the pKd [15, 29] was “below the threshold”. For the same binder, the pKd [16, 29] was “below the threshold”, the pKd [17, 29] was “below the threshold” and the pKd [18, 29] was “below the threshold”. For the same binder, the pKd [19, 29] was 3.53, the pKd [20, 29] was “below the threshold” and the pKd [21, 29] was 3.8. The pKd [22, 29] was “below the threshold”, the pKd [23, 29] was “below the threshold” and the pKd [24, 29] was “below the threshold”. The pKd [25, 29] was “below the threshold”, the pKd [26, 29] was “below the threshold” and the pKd [27, 29] was 3.62. For the same binder, the pKd [28, 29] was “below the threshold”.

For EPQYQPGENL [SRC, P12931], the pKd [1, 30] was “below the threshold”, the pKd [2, 30] was 3.79 and the pKd [3, 30] was “below the threshold”. The pKd [4, 30] was “below the threshold”, the pKd [5, 30] was “below the threshold” and the pKd [6, 30] was 3.53. For the same binder, the pKd [7, 30] was “below the threshold”, the pKd [8, 30] was “below the threshold” and the pKd [9, 30] was “below the threshold”. For the same binder, the pKd [10, 30] was “below the threshold”, the pKd [11, 30] was “below the threshold” and the pKd [12, 30] was “below the threshold”. The pKd [13, 30] was “below the threshold”, the pKd [14, 30] was “below the threshold” and the pKd [15, 30] was “below the threshold”. For the same binder, the pKd [16, 30] was “below the threshold”, the pKd [17, 30] was “below the threshold” and the pKd [18, 30] was “below the threshold”. The pKd [19, 30] was “below the threshold”, the pKd [20, 30] was “below the threshold” and the pKd [21, 30] was “below the threshold”. The pKd [22, 30] was “below the threshold”, the pKd [23, 30] was 4.18 and the pKd [24, 30] was “below the threshold”. The pKd [25, 30] was “below the threshold”, the pKd [26, 30] was “below the threshold” and the pKd [27, 30] was 3.59. For the same binder, the pKd [28, 30] was “below the threshold”.

For QSYPSKHDYV [CLDN18, P56856], the pKd [1, 30] was 3.56, the pKd [2, 30] was 3.83 and the pKd [3, 30] was “below the threshold”. For the same binder, the pKd [4, 30] was “below the threshold”, the pKd [5, 30] was 3.7 and the pKd [6, 30] was 3.71. The pKd [7, 30] was “below the threshold”, the pKd [8, 30] was “below the threshold” and the pKd [9, 30] was “below the threshold”. For the same binder, the pKd [10, 30] was “below the threshold”, the pKd [11, 30] was 3.71 and the pKd [12, 30] was “below the threshold”. For the same binder, the pKd [13, 30] was 3.59, the pKd [14, 30] was “below the threshold” and the pKd [15, 30] was “below the threshold”. For the same binder, the pKd [16, 30] was “below the threshold”, the pKd [17, 30] was “below the threshold” and the pKd [18, 30] was 4.08. For the same binder, the pKd [19, 30] was “below the threshold”, the pKd [20, 30] was “below the threshold” and the pKd [21, 30] was “below the threshold”. The pKd [22, 30] was “below the threshold”, the pKd [23, 30] was 4 and the pKd [24, 30] was “below the threshold”. For the same binder, the pKd [25, 30] was “below the threshold”, the pKd [26, 30] was “below the threshold” and the pKd [27, 30] was 3.81. It also gave a pKd [28, 30] of 4.03.

— PMC9482650, “Quantitative fragmentomics allow affinity mapping of interactomes” (Nature Communications, 2022)
